According to patent US20200031885A1:

What was measured:
Assay in all cases: affinity capture from mixture of 54 pTyr peptides, PRM-MS
[1] = target: BTK (pTyr551) peptide YVLDDEpYTSSVGSK
[2] = target: DDR1 (pTyr796/797) peptide NLYAGDpYpYR
[3] = target: DDR2 (pTyr740/741) peptide NLYSGDpYpYR
[4] = target: EPHA1 (pTyr781) peptide LLDDFDGTpYETQGGK
[5] = target: EPHA2 (pTyr772) peptide …pYTTSGGK
[6] = target: EPHA6 (pTyr830) peptide …pYTTTGGK
[7] = target: EPHA8 (pTyr793) peptide …pYTTTGGK
[8] = target: EPHB2 (pTyr780) peptide …pYTSALGGK
[9] = target: EPHB3 (pTyr792) peptide …pYTSSLGGK
[10] = target: ERBB2 (pTyr877) peptide LLDIDETEpYHADGGK
[11] = target: ERBB3 (pTyr866) peptide QLLpYSEAK
[12] = target: FGFR1 (pTyr653/654) peptide DIHHIDpYpYK
[13] = target: FGFR2 (pTyr656/657) peptide DINNIDpYpYK
[14] = target: FGFR3 (pTyr647/648) peptide DVHNLDpYpYK
[15] = target: FGFR4 (pTyr642/643) peptide GVHHIDpYpYK
[16] = target: INSRR (pTyr1145/1146) peptide DVYETDpYpYR
[17] = target: JAK1 (pTyr1034/1035) peptide EpYpYTVK
[18] = target: JAK2 (pTyr221) peptide IQDpYHILTR
[19] = target: JAK3 (pTyr980/981) peptide DpYpYVVR
[20] = target: LMTK2 (pTyr295) peptide EDpYIETDDK
[21] = target: LMTK3 (pTyr296/297) peptide EDpYpYLTPER
[22] = target: MET (pTyr1234/1235) peptide EpYpYSVHNK
[23] = target: NTRK1 (pTyr680/681) peptide DIYSTDpYpYR
[24] = target: NTRK2 (pTyr706/707) peptide DVYSTDpYpYR
[25] = target: PTK7 (pTyr960/961) peptide DVYNSEpYpYHFR
[26] = target: RON (pTyr1238/1239) peptide EpYpYSVQQHR
[27] = target: ROR1 (pTyr645/646) peptide EIYSADpYpYR
[28] = target: ROR2 (pTyr645/646) peptide EVYAADpYpYK
[29] = target: TEC (pTyr519) peptide YVLDDQpYTSSSGAK
[30] = target: TXK (pTyr420) peptide YVLDDEpYVSSFGAK
[31] = target: TYK2 (pTyr1054/1055) peptide AVPEGHEpYpYR
[32] = target: BLK (pTyr389) peptide IIDSEpYTAQEGAK
[33] = target: BMX (pTyr566) peptide YVLDDQpYVSSVGTK
[34] = target: EPHA3 (pTyr779) peptide …pYTTR
[35] = target: EPHB1 (pTyr778) peptide …pYTSSLGGK
[36] = target: EPHB4 (pTyr774) peptide …pYTSSLGGK
[37] = target: FER (pTyr714) peptide QEDGGVpYSSSGLK
[38] = target: FES (pTyr713) peptide EEADGVpYAASGGLR
[39] = target: FRK (pTyr387) peptide VDNEDIpYESR
[40] = target: GSK3 (pTyr279/216) peptide GEPNVSpYICSR
[41] = target: HCK (pTyr411) peptide VIEDNEpYTAR
[42] = target: ITK (pTyr512) peptide FVLDDQpYTSSTGTK
[43] = target: KIT (pTyr823) peptide NDSNpYVVK
[44] = target: MERTK (pTyr753/754) peptide IYSGDpYpYR
[45] = target: MUSK (pTyr755/756) peptide NIYSADpYpYK
[46] = target: PGFRB (pTyr857) peptide DSNpYISK
[47] = target: RET (pTyr905) peptide DVYEEDSpYVK
[48] = target: SRC (pTyr419) peptide LIEDNEpYTAR
[49] = target: SRMS (pTyr380) peptide DDIpYSPSSSSK
[50] = target: TIE1 (pTyr1007) peptide GEEVpYVK
[51] = target: TIE2 (pTyr992) peptide GQEVpYVK
[52] = target: VGFR1 (pTyr1053) peptide NPDpYVR
[53] = target: VGFR2 (pTyr1059) peptide DPDpYVR

DM human Src SH2 Superbinder expressed with His6 and GST tags (designed binder)
PRM signal peak area [1]: 18200
PRM signal peak area [2]: 43200
PRM signal peak area [3]: 16200
PRM signal peak area [4]: 12300
PRM signal peak area [5]: 4860
PRM signal peak area [6]: 51100
PRM signal peak area [7]: 57100
PRM signal peak area [8]: 98000
PRM signal peak area [9]: 14700
PRM signal peak area [10]: 4640
PRM signal peak area [11]: 152000
PRM signal peak area [12]: 29000
PRM signal peak area [13]: 39500
PRM signal peak area [14]: 64600
PRM signal peak area [15]: 30000
PRM signal peak area [16]: 7790
PRM signal peak area [17]: 46200
PRM signal peak area [18]: 39200
PRM signal peak area [19]: 10500
PRM signal peak area [20]: 1120
PRM signal peak area [21]: 78600
PRM signal peak area [22]: 70800
PRM signal peak area [23]: 30200
PRM signal peak area [24]: 22800
PRM signal peak area [25]: 4840
PRM signal peak area [26]: 17400
PRM signal peak area [27]: 27700
PRM signal peak area [28]: 60500
PRM signal peak area [29]: 4820
PRM signal peak area [30]: 46100
PRM signal peak area [31]: 9680

TrM human Src SH2 Superbinder expressed with His6 and GST tags (designed binder)
PRM signal peak area [32]: 156000
PRM signal peak area [33]: 151000
PRM signal peak area [1]: 1.31e+06
PRM signal peak area [2]: 338000
PRM signal peak area [3]: 185000
PRM signal peak area [4]: 188000
PRM signal peak area [5]: 347000
PRM signal peak area [34]: 394000
PRM signal peak area [6]: 288000
PRM signal peak area [7]: 585000
PRM signal peak area [35]: 206000
PRM signal peak area [8]: 215000
PRM signal peak area [9]: 260000
PRM signal peak area [36]: 134000
PRM signal peak area [10]: 42700
PRM signal peak area [11]: 164000
PRM signal peak area [37]: 27400
PRM signal peak area [38]: 25100
PRM signal peak area [12]: 51200
PRM signal peak area [13]: 87100
PRM signal peak area [14]: 258000
PRM signal peak area [15]: 36100
PRM signal peak area [39]: 291000
PRM signal peak area [40]: 48300
PRM signal peak area [41]: 384000
PRM signal peak area [16]: 20800
PRM signal peak area [42]: 403000
PRM signal peak area [17]: 110000
PRM signal peak area [18]: 85500
PRM signal peak area [19]: 19700
PRM signal peak area [43]: 235000
PRM signal peak area [20]: 20900
PRM signal peak area [21]: 376000
PRM signal peak area [44]: 26500
PRM signal peak area [22]: 111000
PRM signal peak area [45]: 178000
PRM signal peak area [23]: 103000
PRM signal peak area [24]: 115000
PRM signal peak area [46]: 398000
PRM signal peak area [25]: 8860
PRM signal peak area [47]: 883000
PRM signal peak area [26]: 44300
PRM signal peak area [27]: 177000
PRM signal peak area [28]: 334000
PRM signal peak area [48]: 99500
PRM signal peak area [49]: 479000
PRM signal peak area [29]: 781000
PRM signal peak area [50]: 409000
PRM signal peak area [51]: 210000
PRM signal peak area [30]: 272000
PRM signal peak area [31]: 53500
PRM signal peak area [52]: 158000
PRM signal peak area [53]: 197000

wild-type (wt) human Src SH2 domain expressed with His6 and GST tags
PRM signal peak area [1]: 4210
PRM signal peak area [2]: 47700
PRM signal peak area [3]: 15300
PRM signal peak area [6]: 2740
PRM signal peak area [8]: 10800
PRM signal peak area [11]: 41900
PRM signal peak area [12]: 28500
PRM signal peak area [13]: 51600
PRM signal peak area [14]: 104000
PRM signal peak area [15]: 29800
PRM signal peak area [17]: 58300
PRM signal peak area [19]: 23300
PRM signal peak area [21]: 29900
PRM signal peak area [22]: 26800
PRM signal peak area [45]: 47600
PRM signal peak area [23]: 21700
PRM signal peak area [24]: 39600
PRM signal peak area [26]: 5430
PRM signal peak area [27]: 32400
PRM signal peak area [28]: 85900
PRM signal peak area [30]: 1520
PRM signal peak area [31]: 11600
